Data: patent publication US20230250154A1 (CYTONICS, published 2023)

What was measured:
Test in all cases: cell-based or functional assay
[1] = molecular target: bovine trypsin (bovine, UniProt P00760 24-246)
[2] = molecular target: chymotrypsin
[3] = molecular target: T1, Cathepsin G (UniProt P08311 21-244)
T1 sequence (looked up): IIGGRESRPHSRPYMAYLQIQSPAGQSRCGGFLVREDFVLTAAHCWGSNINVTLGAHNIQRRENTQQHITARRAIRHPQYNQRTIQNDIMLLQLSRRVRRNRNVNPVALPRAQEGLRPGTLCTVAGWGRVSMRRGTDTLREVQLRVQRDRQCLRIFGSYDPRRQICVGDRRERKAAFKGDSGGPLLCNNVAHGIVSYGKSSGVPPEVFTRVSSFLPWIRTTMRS

[4] = molecular target: Elastase
[5] = molecular target: T2, ADAMTS4 (human, UniProt O75173 213-685, limits assumed)
T2 sequence (looked up): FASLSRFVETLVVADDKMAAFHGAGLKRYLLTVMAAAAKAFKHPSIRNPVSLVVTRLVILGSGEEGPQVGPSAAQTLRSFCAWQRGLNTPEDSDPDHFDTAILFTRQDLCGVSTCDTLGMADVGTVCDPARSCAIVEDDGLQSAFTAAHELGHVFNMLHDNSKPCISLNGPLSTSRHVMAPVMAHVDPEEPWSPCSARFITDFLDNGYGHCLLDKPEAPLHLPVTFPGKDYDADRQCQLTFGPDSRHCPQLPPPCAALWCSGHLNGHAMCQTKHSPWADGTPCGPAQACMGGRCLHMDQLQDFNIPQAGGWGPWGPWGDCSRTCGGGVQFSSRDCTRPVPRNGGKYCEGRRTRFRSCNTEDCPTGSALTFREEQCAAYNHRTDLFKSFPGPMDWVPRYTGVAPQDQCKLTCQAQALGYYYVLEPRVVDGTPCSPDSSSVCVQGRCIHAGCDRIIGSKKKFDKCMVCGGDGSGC

[6] = molecular target: T3, MMP2 (human, UniProt P08253 110-660, limits assumed)
T3 sequence (looked up): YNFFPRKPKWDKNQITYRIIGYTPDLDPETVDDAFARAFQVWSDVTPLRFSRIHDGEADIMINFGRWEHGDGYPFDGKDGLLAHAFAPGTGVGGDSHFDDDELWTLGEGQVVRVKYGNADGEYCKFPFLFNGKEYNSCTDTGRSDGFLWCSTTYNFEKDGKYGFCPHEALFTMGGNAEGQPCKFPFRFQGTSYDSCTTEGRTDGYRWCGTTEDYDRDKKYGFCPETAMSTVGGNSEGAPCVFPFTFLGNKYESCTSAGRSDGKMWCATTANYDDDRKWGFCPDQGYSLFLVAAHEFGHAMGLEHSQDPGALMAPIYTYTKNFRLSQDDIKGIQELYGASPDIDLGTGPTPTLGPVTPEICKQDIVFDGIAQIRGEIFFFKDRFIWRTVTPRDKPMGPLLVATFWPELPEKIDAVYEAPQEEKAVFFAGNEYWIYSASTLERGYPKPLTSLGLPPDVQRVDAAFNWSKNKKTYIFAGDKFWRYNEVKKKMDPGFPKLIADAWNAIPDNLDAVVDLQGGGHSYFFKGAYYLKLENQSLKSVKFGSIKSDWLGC

[7] = molecular target: MMP13 (human, UniProt P45452 104-471, limits assumed)
[8] = molecular target: T4, ADAMTS5 (human, UniProt Q9UNA0 262-622, limits assumed)
T4 sequence (looked up): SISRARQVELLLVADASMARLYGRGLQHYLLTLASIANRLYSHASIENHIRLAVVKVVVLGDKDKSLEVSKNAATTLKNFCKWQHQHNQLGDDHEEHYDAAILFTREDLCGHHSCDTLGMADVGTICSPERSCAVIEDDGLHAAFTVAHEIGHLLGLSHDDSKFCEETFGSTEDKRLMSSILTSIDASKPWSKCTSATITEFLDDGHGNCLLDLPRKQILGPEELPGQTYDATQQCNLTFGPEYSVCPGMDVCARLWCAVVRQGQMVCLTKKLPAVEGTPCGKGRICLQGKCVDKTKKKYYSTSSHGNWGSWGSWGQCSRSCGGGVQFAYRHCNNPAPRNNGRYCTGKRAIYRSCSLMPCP

[9] = molecular target: MMP12 (human, UniProt P39900 106-470, limits assumed)
[10] = molecular target: T5, MMP1 (human, UniProt P03956 100-469, limits assumed)
T5 sequence (looked up): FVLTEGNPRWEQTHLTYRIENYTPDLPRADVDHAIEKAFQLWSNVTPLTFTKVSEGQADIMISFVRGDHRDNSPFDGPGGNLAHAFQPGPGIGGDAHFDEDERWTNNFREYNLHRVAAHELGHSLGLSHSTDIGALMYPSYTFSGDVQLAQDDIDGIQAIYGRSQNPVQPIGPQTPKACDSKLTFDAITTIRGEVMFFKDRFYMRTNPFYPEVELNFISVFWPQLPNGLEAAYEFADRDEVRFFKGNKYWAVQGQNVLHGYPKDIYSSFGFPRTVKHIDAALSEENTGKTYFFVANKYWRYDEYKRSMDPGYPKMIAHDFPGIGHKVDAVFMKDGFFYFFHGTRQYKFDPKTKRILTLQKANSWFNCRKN

[11] = molecular target: MMP3 (human, UniProt P08254 100-477, limits assumed)
[12] = molecular target: MMP8 (human, UniProt P22894 101-467, limits assumed)
[13] = molecular target: MMP9 (human, UniProt P14780 107-707, limits assumed)
MMP9, sequence (P14780 107-707 limits assumed): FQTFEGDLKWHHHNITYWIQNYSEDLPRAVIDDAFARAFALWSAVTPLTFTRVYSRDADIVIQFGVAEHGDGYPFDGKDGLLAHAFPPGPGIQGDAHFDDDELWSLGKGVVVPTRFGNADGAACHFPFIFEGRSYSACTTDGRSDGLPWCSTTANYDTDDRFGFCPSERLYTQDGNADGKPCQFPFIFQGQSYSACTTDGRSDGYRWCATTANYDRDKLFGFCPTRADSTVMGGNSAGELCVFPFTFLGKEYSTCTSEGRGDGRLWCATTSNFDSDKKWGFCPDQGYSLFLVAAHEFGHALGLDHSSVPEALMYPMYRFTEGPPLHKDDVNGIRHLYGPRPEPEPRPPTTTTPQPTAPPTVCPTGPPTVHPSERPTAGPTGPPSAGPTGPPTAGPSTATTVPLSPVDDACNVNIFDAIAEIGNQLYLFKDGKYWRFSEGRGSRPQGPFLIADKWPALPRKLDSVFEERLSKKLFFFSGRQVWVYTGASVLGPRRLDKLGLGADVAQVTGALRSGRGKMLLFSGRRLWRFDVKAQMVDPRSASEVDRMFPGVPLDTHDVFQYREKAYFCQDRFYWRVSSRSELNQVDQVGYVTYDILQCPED

MMP3, sequence (P08254 100-477 limits assumed): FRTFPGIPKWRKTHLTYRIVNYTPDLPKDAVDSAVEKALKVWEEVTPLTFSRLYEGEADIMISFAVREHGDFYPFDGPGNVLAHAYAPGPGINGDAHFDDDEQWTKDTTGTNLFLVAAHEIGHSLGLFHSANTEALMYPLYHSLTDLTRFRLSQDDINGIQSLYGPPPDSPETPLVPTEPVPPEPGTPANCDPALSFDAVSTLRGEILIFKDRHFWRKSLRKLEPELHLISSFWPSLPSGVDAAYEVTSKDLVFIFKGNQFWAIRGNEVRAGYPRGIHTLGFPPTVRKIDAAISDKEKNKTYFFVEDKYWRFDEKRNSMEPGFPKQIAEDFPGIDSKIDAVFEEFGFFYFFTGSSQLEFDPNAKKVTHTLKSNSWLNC
MMP12, sequence (P39900 106-470 limits assumed): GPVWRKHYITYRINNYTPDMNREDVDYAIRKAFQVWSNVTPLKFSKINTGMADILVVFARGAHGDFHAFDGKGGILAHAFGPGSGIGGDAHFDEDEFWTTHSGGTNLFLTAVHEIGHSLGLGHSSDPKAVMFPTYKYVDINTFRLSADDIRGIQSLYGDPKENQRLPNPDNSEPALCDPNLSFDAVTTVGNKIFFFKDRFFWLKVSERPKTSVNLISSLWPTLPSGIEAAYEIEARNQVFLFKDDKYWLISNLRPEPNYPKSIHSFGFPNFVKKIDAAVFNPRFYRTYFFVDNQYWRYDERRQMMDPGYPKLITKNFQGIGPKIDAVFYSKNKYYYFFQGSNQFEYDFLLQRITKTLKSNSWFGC
MMP8, sequence (P22894 101-467 limits assumed): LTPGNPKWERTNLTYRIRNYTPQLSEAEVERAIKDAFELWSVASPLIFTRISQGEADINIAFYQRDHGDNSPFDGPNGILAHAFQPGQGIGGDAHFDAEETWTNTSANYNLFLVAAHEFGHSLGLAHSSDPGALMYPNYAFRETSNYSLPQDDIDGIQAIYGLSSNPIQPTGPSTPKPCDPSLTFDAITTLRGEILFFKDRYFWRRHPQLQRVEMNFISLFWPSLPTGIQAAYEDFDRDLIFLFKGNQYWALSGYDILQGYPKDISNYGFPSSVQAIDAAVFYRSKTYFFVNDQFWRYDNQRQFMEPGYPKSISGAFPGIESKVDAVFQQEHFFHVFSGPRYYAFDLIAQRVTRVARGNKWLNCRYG
bovine trypsin, sequence (P00760 24-246): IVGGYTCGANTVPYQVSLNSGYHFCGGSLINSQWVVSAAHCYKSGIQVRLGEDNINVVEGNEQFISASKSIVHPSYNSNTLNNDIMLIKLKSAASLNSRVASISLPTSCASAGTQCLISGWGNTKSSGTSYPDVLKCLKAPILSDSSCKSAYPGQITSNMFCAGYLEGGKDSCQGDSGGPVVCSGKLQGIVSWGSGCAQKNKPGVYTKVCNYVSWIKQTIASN

B1: Variant A2M, bait region SEQ ID NO 136 (other)
chain: SVSGKPQYMVLVPSLLHTETTEKGCVLLSYLNETVTVSASLESVRGNRSLFTDLEAENDVLHCVAFAVPKSSSNEEVMFLTVQVKGPTQEFKKRTTVMVKNEDSLVFVQTDKSIYKPGQTVKFRVVSMDENFHPLNELIPLVYIQDPKGNRIAQWQSFQLEGGLKQFSFPLSSEPFQGSYKVVVQKKSGGRTEHPFTVEEFVLPKFEVQVTVPKIITILEEEMNVSVCGLYTYGKPVPGHVTVSICRKYSDASDCHGEDSQAFCEKFSGQLNSHGCFYQQVKTKVFQLKRKEYEMKLHTEAQIQEEGTVVELTGRQSSEITRTITKLSFVKVDSHFRQGIPFFGQVRLVDGKGVPIPNKVIFIRGNEANYYSNATTDEHGLVQFSINTTNVMGTSLTVRVNYKDRSPCYGYQWVSEEHEEAHHTAYLVFSPSKSFVHLEPMSHELPCGHTQTVQAHYILNGGTLLGLKKLSFYYLIMAKGGIVRTGTHGLLVKQEDMKGHFSISIPVKSDIAPVARLLIYAVLPTGDVIGDSAKYDVENCLANKVDLSFSPSQSLPASHAHLRVTAAPQSVCALRAVDQSVLLMKPDAELSASSVYNLLPEKDLTGFPGPLNDQDDEDCINRHNVYINGITYTPVSSTNEKDMYSFLEDMGLKAFTNSKIRKPKMCPQLEQYEMHGPKEEEGLGSIPENFFGVSELEGRGSEGEGEGEGVEEPHTKLRKYFPETWIWDLVVVNSAGVAEVGVTVPDTITEWKAGAFCLSEDAGLGISSTASLRAFQPFFVELTMPYSVIRGEAFTLKATVLNYLPKCIRVSVQLEASPAFLAVPVEKEQAPHCICANGRQTVSWAVTPKSLGNVNFTVSAEALESQELCGTEVPSVPEHGRKDTVIKPLLVEPEGLEKETTFNSLLCPSGGEVSEELSLKLPPNVVEESARASVSVLGDILGSAMQNTQNLLQMPYGCGEQNMVLFAPNIYVLDYLNETQQLTPEIKSKAIGYLNTGYQRQLNYKHYDGSYSTFGERYGRNQGNTWLTAFVLKTFAQARAYIFIDEAHITQALIWLSQRQKDNGCFRSSGSLLNNAIKGGVEDEVTLSAYITIALLEIPLTVTHPVVRNALFCLESAWKTAQEGDHGSHVYTKALLAYAFALAGNQDKRKEVLKSLNEEAVKKDNSVHWERPQKPKAPVGHFYEPQAPSAEVEMTSYVLLAYLTAQPAPTSEDLTSATNIVKWITKQQNAQGGFSSTQDTVVALHALSKYGAATFTRTGKAAQVTIQSSGTFSSKFQVDNNNRLLLQQVSLPELPGEYSMKVTGEGCVYLQTSLKYNILPEKEEFPFALGVQTLPQTCDEPKAHTSFQISLSVSYTGSRSASNMAIVDVKMVSGFIPLKPTVKMLERSNHVSRTEVSSNHVLIYLDKVSNQTLSLFFTVLQDVPVRDLKPAIVKVYDYYETDEFAIAEYNAPCSKDLGNADYKDDDDKGASHHHHHH
Protease Inhibition (% of WT) [1]: 221 % of WT
Protease Inhibition (% of WT) [2]: 25 % of WT
Protease Inhibition (% of WT) [3]: 376 % of WT
Protease Inhibition (% of WT) [4]: 250 % of WT
Protease Inhibition (% of WT) [5]: 80 % of WT
Protease Inhibition (% of WT) [6]: 47 % of WT
Protease Inhibition (% of WT) [7]: 113 % of WT
Protease Inhibition (% of WT) [8]: 373 % of WT
Protease Inhibition (% of WT) [9]: 150 % of WT
Protease Inhibition (% of WT) [10]: 370 % of WT
Protease Inhibition (% of WT) [11]: 130 % of WT
Protease Inhibition (% of WT) [12]: 133 % of WT
Protease Inhibition (% of WT) [13]: 500 % of WT
